Data from the DeepSol protein solubility set.

assay: soluble on expression in E. coli; label from the status in PepcDB or PDB records

Sequence | soluble on expression in E. coli
MTVDNFRLQVLANHCTAAAEAMGYTLMRTAYSTFVKETEDFSAQLMTPAGKTFASPKTFGATWYTGLDYGRVIAMFDDYREGDIYLTNDPYSGFVATHTPDMHVWKPVFRDGRLVCFVGSHIHNTDMGGAVPASLSRTLTEVHQEGLRIPPMLLARDGVIDEKVLRIMEVNVRMPEQNRGDLNAQIAALNVGERKVHEIIDRFGVDEFMQGAEAILDYAEQQTRALIREIPDGEYRFAEYADEDTVGGYPCRIQITLRVRGDELELDFTGSDPQVASSLNVPTGGDGHHSVITVGLIYVMHTLAPRNVLNAGSVRPCRAVLPEGTVVNPQAPAAVGMRSLMAAVIQACTFGVFSRAMPDRLPACPAGGSTLLNVKTATREGRQVLSSIGPCGGGAGGGPEHDGVEGCGANNAFLKNTPVEINEAEVPIEIIRYGLVPDTGGAGRQRGGNAATMEFRLLAPNGVVTARNRNRSELAAWGVMGGKAGANSRFIRNPDSDAPEELRNSDLVNCAPGDVIRLQGPAGGGYGHPYERPIEQVVED | not soluble
MSCDRKDEEKKETEEKKDDESKKKDEKKEEKSKRKEDEKKEKQNIAGAVYNQMRNTILMEEGSVISGRFEVKGIIGGGGFAQIYKAWDKVRKEDCAIKVEHESQDIRRMKLEITVLLALRGSMGIPEILAQGKWQHEDNKSHYIVMQLVGRNLSDVRRALPHKRITERTLYRAMIQVLKALSLVHGAGFLHRDLKPSNCCIGAIDCTRIYLIDYGLTRQYLDKGGIVRKPRAGVGLRGTVRYMSLDAHARQDLGPKNDLVAFLYTTIECGDGYLPWSHEKTHENIIKLKQAHIGDKLCTKQPVMTKAAEYIESLNYHSIPDYEKLLALMEECNPPDLKESEPYDWQYRHLPNGTPGGTKENVTERMAI | soluble
MSLLIKNGTIVNDDAIFKSDVLVLDGRIVEIAPSIQPTPGLEVVDATDRLVIPGGIDPHTHMQLPFMGEIAKDDFHRGTEAAVAGGTTMIIDFVIPTKGESLLVAYDRWRGWADPKVVCDYGLSMAITSWGPEIAKEMEIVTGAEYGINSFKFFLAYAGVFMVRDEEFYQGMIQCAKLRALARVHAENGSVIAERCEHLLSSGITGPEGHTQSRPEELEAEATFRACTMASQANCPLYVVHVMSKGAAAAIAHHRKKGAVVFGEPIAAGLATDGSHYYNEDWLHAARYVMSPPLSRDPSTPSALMKLLAAGELHLTATDNCTFDCQQKSLGKDDFTKIPNGVNGVEDRMSVVWDKGVHAGIIDPMRFVAVTSTMAAKIFNCYPQKGRIAVGSDADIVIWNANATRTISKDTHHHAIDFNIFEGMQVHGVPEITISRGRTVWANGQLKTVQGSGQFIPLAPDSQIVFSAVDNRKKAMEPVKIDRIPYEPSALQTPDANANIVVKAPVRAAIPPGGASSIQF | not soluble
MAHHHHHHMDAKQRESIEELKEQLRGLEEALLIQEKVMQQRNQVILSLSSSIADAENSIGESKEGLKKAEESLEEAIRSNTIAHTERLVLQEEATKYSERDEYLNELSEADAGLNAAEAQVKDLVIQINDLSREPQNKNALQRVTLVRLISMLNDLHASLKHSVQCVPHEEDNRAREVLKAIRELSRERERTFGHCLRKKREIMGVMELKKQRTDEILLESKKNVALLRDIHEKTTLDAVEKIQKERNLLQEELENIKRANQLLQDTLGSTECLCDTKGSDSASTPASISMNVASCQSTDVQKEREHLREYLRHLEEKVTQLRSTTDELRESVGSQMEKNTLKLKDLRHQVRSKQNETHRLENENRKLKSLCDSLASTLGPK | not soluble
MTDAQSRDEKGIPASIYDGIFKNNRQIKPGNPNELKMVMGLKLKEVNKDCADAVLRVSKATLSWEIVREIMNATERLIQERVSDPTGQVAIAVDPPSSWSKSVTDFLASCYKLSPSPNFKFLELLAILTGKSQYLILQWFDTAEEEKREKNQKLETATFKRHCPWRKRHRLIQPLSNATAIPFLEAAFQKSSIPGSVELYDLQLKTNWFICELKAWFTARRVAEEIKGKLSELTGVQGVAKDQS | not soluble
MGSDKIHHHHHHMNQIDRLLTIMQRLRDPENGCPWDKEQTFATIAPYTLEETYEVLDAIAREDFDDLRGELGDLLFQVVFYAQMAQEEGRFDFNDICAAISDKLERRHPHVFADSSAENSSEVLARWEQIKTEERAQKAQHSALDDIPRSLPALMRAQKIQKRCANVGFDWTTLGPVVDKVYEEIDEVMYEARQAVVDQAKLEEEMGDLLFATVNLARHLGTKAEIALQKANEKFERRFREVERIVAARGLEMTGVDLETMEEVWQQVKRQEIDL | not soluble
MSLTALSSVDFCLPEHITPEIFLRDYWQKKPLVIRNGLPEIVGQFEPQDIIELAQNEDVTARLVKTFSDDDWKVFFSPLSEKDFQKLPEKWSVLVQNLEQWSPELGQLWNKFGFIPQWQRDDIMVSYAPKGGSVGKHYDEYDVFLVQGYGHRRWQVGKWCDASTEFKPNQSIRIFDDMGELVIDEVMNPGDILYIPARMAHYGVAEDDCLTFSFGLRYPNLSNLIDGISKGFCHQDPDLNLSEFDLPLRLSQSEQRTGKLADENIQAMKQLLLDKLAHSEAFDTLFKQAVASAVSSRRYELLVSDEMCDPDEVRSILEEDGAFLSQDNNCKLLYTENPLRIYANGEWLDELNIIESEVLKRLSDGESLDWAFLSDLANKTEDPETSMDLLLDSICNWVDDGWALIEEGGSHHHHHH | soluble
CDKSANPKQPTQGMSVVTSFYPMYAMTKEVSGDLNDVRMIQSGAGIHSFEPSVNDVAAIYDADLFVYHSHTLEAWARDLDPNLKKSKVNVFEASKPLTLDRVKGLEDMEVTQGIDPATLYDPHTWTDPVLAGEEAVNIAKELGHLDPKHKDSYTKKAKAFKKEAEQLTEEYTQKFKKVRSKTFVTQHTAFSYLAKRFGLKQLGISGISPEQEPSPRQLKEIQDFVKEYNVKTIFAEDNVNPKIAHAIAKSTGAKVKTLSPLEAAPSGNKTYLENLRANLEVLYQQLK | soluble
MSLSEPSVQADTRLNALIVQDIPERMPIYRALIEQLDVPSTLIEIEAMIVDVNTDLVNELGVTWGAQIGTTSLGYGDLGLRPGNGLPVDGAAAELAPGTLGISVSTRLAARLRALESDGQANILSQPSILTADNLGAMIDLSDTFYIRTLGERVATVTPVTVGTSLRVTPRYIAAKGGRQVELAIDIEDGRVLQEYPIDGLPRVRKSSISTLAVVGDEQTLLIGGYNNRRDEEQVEKVPLLGDIPGLGFLFSSKSRAVQRRERLFLIRPRVVAIEGKPVFSPVAGTSQVFMSTEGHHHHHH | soluble
MGSDKIHHHHHHSDSFTYPSAYGWWSVDNGYDVNNVNSRMVSGDFNGDGKADVATFYDYGNGASRIHVFTSNGSSFDYASAYGWWNTPSGYDPKRITAVVAGDFNGDHKDDIAVIYNYGNSETRIHVFISTGSSFSYTDCNGWWNATGYDAGRITGAVAGDFNGDGKSDIATMYDYGGGETRIHVFTSTGSSFTYTGANGWWNSTGYDSNRVKGRVVAGDFNGDGKTDIAAMYDYGGSESRIHVFLSTGDSFKYTGANGWWSTTGYDANKVTGRLVAGDFNGDGKADIAAMYDYGNAETRIHVLTSNGDSFTYTGANGWWNTTGYDANRVTGRVVAGDFNGDHKADIAAFYDYGSSASRIHVFTSNADSPESSKGAELVAYAESFLGVPYVWGGADPSGFDCSGLVQYCYEHFGVDLPRTTYDQVNCGTTVTDDLQPGDLLFFGSATSPTHVAIYAGNSKMVEAPHTGANVRLVDIRSYFIAKRIFN | not soluble
MSFEEFTPLNEKSLVDYIKSTPALSSKIGADKSDDDLVIKEVGDGNLNFVFIVVGSSGSLVIKQALPYIRCIGESWPMTKERAYFEATTLRKHGNLSPDHVPEVYHFDRTMALIGMRYLEPPHIILRKGLIAGIEYPFLADHMSDYMAKTLFFTSLLYHDTTEHRRAVTEFCGNVELCRLTEQVVFSDPYRVSTFNRWTSPYLDDDAKAVREDSALKLEIAELKSMFCERAQALIHGDLHTGSVMVTQDSTQVIDPEFSFYGPMGFDIGAYLGNLILAFFAQDGHATQENDRKEYKQWILRTIEQTWNLFNKRFIALWDQNKDGPGEAYLADIYNNTEVLKFVQENYMRNLLHDSLGFGAAKMIRRIVGVAHVEDFESIEEDKRRAICERSALEFAKMLLKERRKFKSIGEVVSAIQQQS | soluble
MSTSWRIRIMLTIHAKLVEAMLAQAHKDHPFEICGVIAGPEKSNLPLRLIPMRNAAQSETFFKFDPQEQLQVWREMEARGEEPIVIYHSHTHTPAYPSRTDVQYASQPQSHYVIVPTDPAYGEEIRSFRILDGMVTEERIRMINSYKAEWELSMEAMVALEHHHHHH | soluble
SLHPDTILHNGRVTTLDRGNPNATAVAIKDGLFVEVGSDAEVMALAGSETKIIDLKGKRVLPGLIDNHTHVIRGGLNFNMELRWDGVRSLADAMYMLKRQVAITPAPQWVRVVGGFTEHQFVEKRLPTIEEINAVAPDTPVFLLHLYDRALLNGAALRAVGYTKDTPNPPGGEITRDANGNPTGLLLAKPNAGILYSTLAKGPKLPLDYQVNSTRHFMRELNRLGVTGVIDAGGGFQNYPDDYEVIQKLSDENQMTVRLAYNLFTQKPKQEKEDFLNWTSSVKYKQGNDYFRHNGAGEMLVFSAADFEDFRQPRPDMPPEMEGELEDVVRILAENRWPWRLHATYDETISRALDVFEKVNRDIPLEGLNWFFDHAETISDRSIDRIAALGGGIATQHRMAYQGEYFVERYGQGVAEATPPIARMLEKGVNVSAGTDATRVASYNPWVSLFWMVTGKTVGGMQLYPRANCLDRETALRMWTEKVTWFSNEEGKKGRIEKGQFADLVVPDKDYFSCAEDEISFLTSELTMVGGKIVYGAGDFRVLDESNIPPAMPDWSPVRTFGGYAAWGEPQGAGKNSLRRAAITSCGCASDCGVHGHDHAGAWTSKLPIADLKGFFGALGCSCWAV | soluble
MLWRKRLFAHLYPGLSARHEALVAERKRALFREALRRARPERVLEIGPGPGTNLAHLPEGVAYLALEPNPFFHPRLREEARKRGLALTLLPGRAEAIPLPGGSVDLVVATLVLCSVADPEKAIEEVHRVLRPGGAYLFLEHVAAPKGAPLRLLQEAATPFFVFFGDGCHPNRKTLAQIQARFPRVEAEAFSLPLPVVAPHVAGLAFKELEHHHHHH | not soluble
LDDEDVDTVVDHCGDILEHFERLEEVPEVDAEPELVNVMRADEIADSLDQDDALANAPETEDGRF | soluble
MKKKSVWIKADEGGWEEQKERITTGLESGADCVLVNPGDVEKVRELGNITVAAFARDNKSGADIVVVGKRGEGDGTKPLPQEIPGSFDVNAATLLTDKGVTVGGYVVIKDRSYERFAAEMGKICDYLLVTGTDWKVIPLENLIADLQREKVKIIFGVKSAEEARLAFQTLETGADGVLLDSGNPQEIKDTIKAARELESESTELESAVVTRVEPLGMGDRVCVDTCNLMQRGEGMLIGSQASGMFLVNSESDDSPYVAARPFRVNAGAVHSYIKIGDKTRYLSELQAGDSVTIIDSRGKQREGIVGRIKIESRPLMLIEAKAGDRTLTAILQNAETIKLVGKGGTPISVAKLKKGDEVLVRLEEGARHFGKKIEETIIEKLEHHHHHH | soluble
LSDEDFRAVFGMTRSAFANLPLWRQQNLRRERGLF | soluble
